Results taken from the RNAGym collection of RNA variant scans (doi:10.1021/acssynbio.7b00057).

B1: Pistol ribozyme (parent)
chain: GGGUCGUUGUUCCAUAAUCGCGUGGAUAUGGCACGCAAGUUUCUACCGGGCACCGUAAAUGUCCGACUGGAGCCGUUCGGGCGGCUAUAAACAGACCUCAGGCCCGAAGCGUGGCGGCACCUGCCGCCGGUGGUAAAAAAGAUCGGAAGAGCACACGUCU

Variants of: B1
Assay: aptazyme ON/OFF ratio, guanine; higher = stronger switching; co-transcriptional cleavage with and without guanine

Compared with GGGUCGUGUGAUGAUAAUCGCGUGGAUAUGGCACGCAAGUUUCUACCGGGCACCGUAAAUGUCCGACUGGAGCCGUUCGGGCGGCUAUAAACAGACCUCAGGCCCGAAGCGUGGCGGCACCUGCCGCCGGUGGUAAAAAAGAUCGGAAGAGCACACGUCU [U8G G9U U10G U11A C12U C13G], GGGUCGUGUGAUUAUAAUCGCGUGGAUAUGGCACGCAAGUUUCUACCGGGCACCGUAAAUGUCCGACUGGAGCCGUUCGGGCGGCUAUAAACAGACCUCAGGCCCGAAGCGUGGCGGCACCUGCCGCCGGUGGUAAAAAAGAUCGGAAGAGCACACGUCU [U8G G9U U10G U11A C12U C13U] is higher in “aptazyme ON/OFF ratio” value: 1.05 for the first, 1.06 for the second.

Compared with GGGUCGUGUGAUAAUAAUCGCGUGGAUAUGGCACGCAAGUUUCUACCGGGCACCGUAAAUGUCCGACUGGAGCCGUUCGGGCGGCUAUAAACAGACCUCAGGCCCGAAGCGUGGCGGCACCUGCCGCCGGUGGUAAAAAAGAUCGGAAGAGCACACGUCU [U8G G9U U10G U11A C12U C13A], GGGUCGUGUGUCGAUAAUCGCGUGGAUAUGGCACGCAAGUUUCUACCGGGCACCGUAAAUGUCCGACUGGAGCCGUUCGGGCGGCUAUAAACAGACCUCAGGCCCGAAGCGUGGCGGCACCUGCCGCCGGUGGUAAAAAAGAUCGGAAGAGCACACGUCU [U8G G9U U10G C13G] is lower in “aptazyme ON/OFF ratio” value: 1.05 for the first, 1.03 for the second.

GGGUCGUGUGUCUAUAAUCGCGUGGAUAUGGCACGCAAGUUUCUACCGGGCACCGUAAAUGUCCGACUGGAGCCGUUCGGGCGGCUAUAAACAGACCUCAGGCCCGAAGCGUGGCGGCACCUGCCGCCGGUGGUAAAAAAGAUCGGAAGAGCACACGUCU [U8G G9U U10G C13U] and GGGUCGUGUGUCAAUAAUCGCGUGGAUAUGGCACGCAAGUUUCUACCGGGCACCGUAAAUGUCCGACUGGAGCCGUUCGGGCGGCUAUAAACAGACCUCAGGCCCGAAGCGUGGCGGCACCUGCCGCCGGUGGUAAAAAAGAUCGGAAGAGCACACGUCU [U8G G9U U10G C13A] are the same in “aptazyme ON/OFF ratio” value: 1.04 for the first, 1.04 for the second.

First: GGGUCGUGUGUUCAUAAUCGCGUGGAUAUGGCACGCAAGUUUCUACCGGGCACCGUAAAUGUCCGACUGGAGCCGUUCGGGCGGCUAUAAACAGACCUCAGGCCCGAAGCGUGGCGGCACCUGCCGCCGGUGGUAAAAAAGAUCGGAAGAGCACACGUCU [U8G G9U U10G C12U]
Second: GGGUCGUGUGAGUAUAAUCGCGUGGAUAUGGCACGCAAGUUUCUACCGGGCACCGUAAAUGUCCGACUGGAGCCGUUCGGGCGGCUAUAAACAGACCUCAGGCCCGAAGCGUGGCGGCACCUGCCGCCGGUGGUAAAAAAGAUCGGAAGAGCACACGUCU [U8G G9U U10G U11A C12G C13U]
The “aptazyme ON/OFF ratio” value of the first is lower: 1.02 for the first, 1.04 for the second.

First: GGGUCGUGUGAGGAUAAUCGCGUGGAUAUGGCACGCAAGUUUCUACCGGGCACCGUAAAUGUCCGACUGGAGCCGUUCGGGCGGCUAUAAACAGACCUCAGGCCCGAAGCGUGGCGGCACCUGCCGCCGGUGGUAAAAAAGAUCGGAAGAGCACACGUCU [U8G G9U U10G U11A C12G C13G]
Second: GGGUCGUGUGAGAAUAAUCGCGUGGAUAUGGCACGCAAGUUUCUACCGGGCACCGUAAAUGUCCGACUGGAGCCGUUCGGGCGGCUAUAAACAGACCUCAGGCCCGAAGCGUGGCGGCACCUGCCGCCGGUGGUAAAAAAGAUCGGAAGAGCACACGUCU [U8G G9U U10G U11A C12G C13A]
The “aptazyme ON/OFF ratio” value of the first is higher: 1.17 for the first, 1.05 for the second.

Compared with GGGUCGUGUGUUUAUAAUCGCGUGGAUAUGGCACGCAAGUUUCUACCGGGCACCGUAAAUGUCCGACUGGAGCCGUUCGGGCGGCUAUAAACAGACCUCAGGCCCGAAGCGUGGCGGCACCUGCCGCCGGUGGUAAAAAAGAUCGGAAGAGCACACGUCU [U8G G9U U10G C12U C13U], GGGUCGUGUGUUGAUAAUCGCGUGGAUAUGGCACGCAAGUUUCUACCGGGCACCGUAAAUGUCCGACUGGAGCCGUUCGGGCGGCUAUAAACAGACCUCAGGCCCGAAGCGUGGCGGCACCUGCCGCCGGUGGUAAAAAAGAUCGGAAGAGCACACGUCU [U8G G9U U10G C12U C13G] is lower in “aptazyme ON/OFF ratio” value: 1.06 for the first, 1.02 for the second.

First: GGGUCGUGUGUUAAUAAUCGCGUGGAUAUGGCACGCAAGUUUCUACCGGGCACCGUAAAUGUCCGACUGGAGCCGUUCGGGCGGCUAUAAACAGACCUCAGGCCCGAAGCGUGGCGGCACCUGCCGCCGGUGGUAAAAAAGAUCGGAAGAGCACACGUCU [U8G G9U U10G C12U C13A]
Second: GGGUCGUGUGAGCAUAAUCGCGUGGAUAUGGCACGCAAGUUUCUACCGGGCACCGUAAAUGUCCGACUGGAGCCGUUCGGGCGGCUAUAAACAGACCUCAGGCCCGAAGCGUGGCGGCACCUGCCGCCGGUGGUAAAAAAGAUCGGAAGAGCACACGUCU [U8G G9U U10G U11A C12G]
The “aptazyme ON/OFF ratio” value of the first is lower: 1.03 for the first, 1.06 for the second.

Going from GGGUCGUGUGAUCAUAAUCGCGUGGAUAUGGCACGCAAGUUUCUACCGGGCACCGUAAAUGUCCGACUGGAGCCGUUCGGGCGGCUAUAAACAGACCUCAGGCCCGAAGCGUGGCGGCACCUGCCGCCGGUGGUAAAAAAGAUCGGAAGAGCACACGUCU [U8G G9U U10G U11A C12U] to GGGUCGUGUGAACAUAAUCGCGUGGAUAUGGCACGCAAGUUUCUACCGGGCACCGUAAAUGUCCGACUGGAGCCGUUCGGGCGGCUAUAAACAGACCUCAGGCCCGAAGCGUGGCGGCACCUGCCGCCGGUGGUAAAAAAGAUCGGAAGAGCACACGUCU [U8G G9U U10G U11A C12A], the “aptazyme ON/OFF ratio” value rises from 1.03 to 1.08.

Going from GGGUCGUGUGACCAUAAUCGCGUGGAUAUGGCACGCAAGUUUCUACCGGGCACCGUAAAUGUCCGACUGGAGCCGUUCGGGCGGCUAUAAACAGACCUCAGGCCCGAAGCGUGGCGGCACCUGCCGCCGGUGGUAAAAAAGAUCGGAAGAGCACACGUCU [U8G G9U U10G U11A] to GGGUCGUGUGCCCAUAAUCGCGUGGAUAUGGCACGCAAGUUUCUACCGGGCACCGUAAAUGUCCGACUGGAGCCGUUCGGGCGGCUAUAAACAGACCUCAGGCCCGAAGCGUGGCGGCACCUGCCGCCGGUGGUAAAAAAGAUCGGAAGAGCACACGUCU [U8G G9U U10G U11C], the “aptazyme ON/OFF ratio” value falls from 1.09 to 1.02.
